Results taken from paper PMC9986795, “Structural basis of DNA binding by YdaT, a functional equivalent of the CII repressor in the cryptic prophage CP-933P from Escherichia coli O157:H7” (Acta Crystallographica. Section D, Structural Biology, 2023).

Target: the molecule itself
Assay: crystal structure; sitting drop, 0.1 M bis-Tris pH 5.5, 2.0 M ammonium sulfate, 19°C; free YdaT, a tetramer in the asymmetric unit, 2.4 Å

B1: YdaT from the cryptic prophage CP-933P of Escherichia coli O157:H7 (wild-type YdaT) (natural protein)
chain: KIKHEHIRMAMNVWAHPDGEKVPAAKITKAYFELGMTFPELYDDSHPEALARNTQKIFRWLDKDTPDAVEKMQALLPAIEKAMPPLLVARMRSHSSEYYREIVERRDRLVKDVDDFVASAVVLYDQMNRGGPAGNAVVMH
notes: YdaT, E. coli O157:H7 prophage CP-933P, open reading frame in pET-28b; also called CP-933P YdaT; full-length protein
Q: Which “stoichiometry N” value does the source give for B1 here?
A: 4
